Assay results reported in the supplement of paper PMC11780869.

Tested on: Bacillus subtilis
Experiment: cleaved RNA product abundance (RNA/gDNA barcode ratio) relative to median wild-type variant (ratio to wild type); higher = more accumulation of the downstream cleavage product
Details: cleavage site: cggR-gapA (positions -7 to +36 mutated)
How it was run: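 The B. subtilis chromosome carried reporter mRNAs, truncated aprE or tetM, containing barcoded RNase Y cleavage-site windows mutagenized using oligos with a 9% error rate. After growth in LB at 37°C from OD600 0.0003 to 0.3, cleaved RNA was gel-selected, reverse transcribed and barcode-sequenced next to genomic DNA barcodes, with UMI collapsing. Each construct's RNA:gDNA barcode ratio was scaled to the median construct with the unmutated site. That scaled ratio is reported as cleaved product abundance.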

[1] = experiment (reporter, strain, medium): exp 4a: truncated aprE reporter, strain BJT201 with 2% xylose (RNase J1 expressed)
[2] = experiment (reporter, strain, medium): exp 2b: truncated aprE reporter, strain BJT200
[3] = experiment (reporter, strain, medium): exp 6: tetM reporter, strain 168

Row | Sequence | cleaved RNA product abundance [1] | cleaved RNA product abundance [2] | cleaved RNA product abundance [3]
1 | ACAGACGAAGGAGCCGCAAAGAAGTTATTAAGGGATGAATAATGCATCAATATAAATATCTCTCACTTATTTAAA | 0.159 | – | –
2 | ACAGACGAAGGAGCCGCAAAGAAGTTATTAAGGGATGAATAATGCCACAATATAAATATCTCTCACTTATTTAAA | 0.0904 | – | –
3 | ACAGACGAAGGAGCCGCAAAGAAGTTATTAAGGGATGAATAATGCCCCAATATAAATATCTCTCACTTATTTAAA | 0.134 | – | –
4 | ACAGACGAAGGAGCCGCAAAGAAGTTATTAAGGGATGAATAATGCCTAAATATAAATATCTCTCACTTATTTAAA | 0.149 | – | –
5 | ACAGACGAAGGAGCCGCAAAGAAGTTATTAAGGGATGAATAATGCCTCAAAATAAATATCTCTCACTTATTTAAA | 0.173 | – | –
6 | ACAGACGAAGGAGCCGCAAAGAAGTTATTAAGGGATGAATAATGCCTCAATAGAAATATCTCTCACTTATTTAAA | 0.0653 | – | –
7 | ACAGACGAAGGAGCCGCAAAGAAGTTATTAAGGGATGAATAATGCCTCAATATAAAAATCTCTCACTTATTTAAA | 0.159 | 0.15 | –
8 | ACAGACGAAGGAGCCGCAAAGAAGTTATTAAGGGATGAATAATGCCTCAATATAAATATCTCTCACTTATTTAAA | 0.17 | 0.129 | 0.128
9 | ACAGACGAAGGAGCCGCAAAGAAGTTATTAAGGGATGAATAATGCCTCACTATAAATATCTCTCACTTATTTAAA | 0.142 | – | –
10 | ACAGACGAAGGAGCCGCAAAGAAGTTATTAAGGGATGAATAATGCCTCATTATAAATATCTCTCACTTATTTAAA | 0.127 | – | –
11 | ACAGACGAAGGAGCCGCAAAGAAGTTATTAAGGGATGAATAATGCCTCTATATAAATATCTCTCACTTATTTAAA | – | 0.111 | –
12 | ACAGACGAAGGAGCCGCAAAGAAGTTATTAAGGGATGAATAATGGCTCAATATAAATATCTCTCACTTATTTAAA | 0.0723 | – | –
13 | ACAGACGAAGGAGCCGCAAAGAAGTTATTAAGGGATGAATAATGTCTCAATATAAATATCTCTCACTTATTTAAA | 0.0823 | – | –
14 | ACAGACGAAGGAGCCGCAAAGAAGTTATTAAGGGATGAATAATTACTCAATATAAATATCTCTCACTTATTTAAA | 0.137 | 0.0971 | 0.11
15 | ACAGACGAAGGAGCCGCAAAGAAGTTATTAAGGGATGAATAATTCATCAATATAAATATCTCTCACTTATTTAAA | 0.201 | – | –
16 | ACAGACGAAGGAGCCGCAAAGAAGTTATTAAGGGATGAATAATTCCACAATATAAATATCTCTCACTTATTTAAA | 0.148 | – | –
17 | ACAGACGAAGGAGCCGCAAAGAAGTTATTAAGGGATGAATAATTCCGCAATATAAATATCTCTCACTTATTTAAA | 0.188 | – | –
18 | ACAGACGAAGGAGCCGCAAAGAAGTTATTAAGGGATGAATAATTCCTAAATATAAATATCTCTCACTTATTTAAA | 0.508 | – | –
19 | ACAGACGAAGGAGCCGCAAAGAAGTTATTAAGGGATGAATAATTCCTCAAAATAAATATCTCTCACTTATTTAAA | 0.331 | – | –
20 | ACAGACGAAGGAGCCGCAAAGAAGTTATTAAGGGATGAATAATTCCTCAACATAAATATCTCTCACTTATTTAAA | 0.183 | 0.134 | –
21 | ACAGACGAAGGAGCCGCAAAGAAGTTATTAAGGGATGAATAATTCCTCAAGATAAATATCTCTCACTTATTTAAA | 0.256 | 0.146 | –
22 | ACAGACGAAGGAGCCGCAAAGAAGTTATTAAGGGATGAATAATTCCTCAATATAAAAATCTCTCACTTATTTAAA | 0.86 | – | –
23 | ACAGACGAAGGAGCCGCAAAGAAGTTATTAAGGGATGAATAATTCCTCAATATAAATATCTCTCACTTATTTAAA | 0.616 | 0.506 | 0.494

Row | Sequence | cleaved RNA product abundance [1] | cleaved RNA product abundance [2] | cleaved RNA product abundance [3]
24 | ACAGACGAAGGAGCCGCAAAGAAGTTATTAAGGGATGAATAATTCCTCAATATAAATGTCTCTCACTTATTTAAA | 0.564 | – | –
25 | ACAGACGAAGGAGCCGCAAAGAAGTTATTAAGGGATGAATAATTCCTCAATATAAATTTCTCTCACTTATTTAAA | 0.625 | – | –
26 | ACAGACGAAGGAGCCGCAAAGAAGTTATTAAGGGATGAATAATTCCTCAATATAATTATCTCTCACTTATTTAAA | 0.254 | 0.298 | –
27 | ACAGACGAAGGAGCCGCAAAGAAGTTATTAAGGGATGAATAATTCCTCAATATACATATCTCTCACTTATTTAAA | 0.498 | – | –
28 | ACAGACGAAGGAGCCGCAAAGAAGTTATTAAGGGATGAATAATTCCTCAATTTAAATATCTCTCACTTATTTAAA | 0.0634 | 0.0889 | –
29 | ACAGACGAAGGAGCCGCAAAGAAGTTATTAAGGGATGAATAATTCCTCACTATAAATATCTCTCACTTATTTAAA | 0.156 | 0.132 | –
30 | ACAGACGAAGGAGCCGCAAAGAAGTTATTAAGGGATGAATAATTCCTCATTATAAATATCTCTCACTTATTTAAA | 0.306 | 0.177 | –
31 | ACAGACGAAGGAGCCGCAAAGAAGTTATTAAGGGATGAATAATTCCTCCATATAAATATCTCTCACTTATTTAAA | 0.119 | 0.102 | –
32 | ACAGACGAAGGAGCCGCAAAGAAGTTATTAAGGGATGAATAATTCCTCTATATAAATATCTCTCACTTATTTAAA | 0.248 | – | –
33 | ACAGACGAAGGAGCCGCAAAGAAGTTATTAAGGGATGAATAATTCCTGAATATAAATATCTCTCACTTATTTAAA | 0.471 | – | –
34 | ACAGACGAAGGAGCCGCAAAGAAGTTATTAAGGGATGAATAATTCGTCAATATAAATATCTCTCACTTATTTAAA | – | 0.0726 | –
35 | ACAGACGAAGGAGCCGCAAAGAAGTTATTAAGGGATGAATAATTCTTCAATATAAATATCTCTCACTTATTTAAA | 0.18 | – | –
36 | ACAGACGAAGGAGCCGCAAAGAAGTTATTAAGGGATGAATAATTGCTCAATATAAATATCTCTCACTTATTTAAA | 0.0655 | 0.0946 | –
37 | ACAGACGAAGGAGCCGCAAAGAAGTTATTAAGGGATGAATAATTTCTCAATATAAATATCTCTCACTTATTTAAA | 0.16 | – | –
38 | ACAGACGAAGGAGCCGCAAAGAAGTTATTAAGGGATGAATACTACCTCAATATAAATATCTCTCACTTATTTAAA | 0.168 | 0.124 | –
39 | ACAGACGAAGGAGCCGCAAAGAAGTTATTAAGGGATGAATACTCACTCAATATAAATATCTCTCACTTATTTAAA | 0.0953 | – | –
40 | ACAGACGAAGGAGCCGCAAAGAAGTTATTAAGGGATGAATACTCCATCAATATAAATATCTCTCACTTATTTAAA | 0.137 | 0.102 | 0.152
41 | ACAGACGAAGGAGCCGCAAAGAAGTTATTAAGGGATGAATACTCCCACAATATAAATATCTCTCACTTATTTAAA | 0.139 | – | –
42 | ACAGACGAAGGAGCCGCAAAGAAGTTATTAAGGGATGAATACTCCCTAAATATAAATATCTCTCACTTATTTAAA | – | 0.366 | –
43 | ACAGACGAAGGAGCCGCAAAGAAGTTATTAAGGGATGAATACTCCCTCAAAATAAATATCTCTCACTTATTTAAA | 0.194 | 0.176 | –
44 | ACAGACGAAGGAGCCGCAAAGAAGTTATTAAGGGATGAATACTCCCTCAAGATAAATATCTCTCACTTATTTAAA | – | 0.156 | –
45 | ACAGACGAAGGAGCCGCAAAGAAGTTATTAAGGGATGAATACTCCCTCAATAGAAATATCTCTCACTTATTTAAA | 0.115 | – | –
